The target in this assay is SN (Staphylococcus nuclease scaffold protein) (Staphylococcus aureus, UniProt Q5HHM4). The assay is described as follows: ELISA.

B1: SmpB (protein)
chain: MSKKNSKNKAGSNTIALNRSARHEYFIEEKIEAGLSLQGWEVKSLRAGKANISEAYVIFRDGEAYLFGSSFLPLQAASSHVVCDPTRTRKLLLSRRELDKLESLIARQGYTVVPLALYWKQCWVKVEIGLVKGKKEHDKREDTKAREWDREKARIMKNKHRG
B1 displayed a Kd of 1380 nM.
